The text below walks through data of publication PMC7788135, “OsMS188 Is a Key Regulator of Tapetum Development and Sporopollenin Synthesis in Rice”.

One series concerns the target T1, MBP-OsMS188 (Oryza sativa (rice; Nipponbare?), UniProt Q7XQN1 1-372).
T1 sequence: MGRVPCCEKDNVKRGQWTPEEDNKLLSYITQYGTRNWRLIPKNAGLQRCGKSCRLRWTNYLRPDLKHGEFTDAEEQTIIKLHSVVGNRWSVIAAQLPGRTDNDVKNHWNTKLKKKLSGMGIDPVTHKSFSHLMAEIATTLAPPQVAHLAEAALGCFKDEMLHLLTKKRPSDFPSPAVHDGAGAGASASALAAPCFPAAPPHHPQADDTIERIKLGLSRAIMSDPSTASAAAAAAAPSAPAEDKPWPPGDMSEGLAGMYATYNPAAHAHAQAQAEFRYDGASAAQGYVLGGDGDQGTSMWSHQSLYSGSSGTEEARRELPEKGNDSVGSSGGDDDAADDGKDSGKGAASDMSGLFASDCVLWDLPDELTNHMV
Briefly: EMSA; unlabelled probe competes; LightShift Chemiluminescent EMSA Kit (Thermo); buffer, salt, pH and temperature not stated. As to conditions: protein: recombinant; label: biotin; blunt.

The next series has as its target MBP-TDR (Oryza sativa (rice; Nipponbare?), UniProt Q6YUS3 1-552). Briefly: EMSA; unlabelled probe (5- to 200-fold) competes; LightShift Chemiluminescent EMSA Kit (Thermo); buffer, salt, pH and temperature not stated.
A further series has as its target T2, MBP-EAT1 (Oryza sativa (rice; Nipponbare?), UniProt Q7X8R0 1-464).
T2 sequence: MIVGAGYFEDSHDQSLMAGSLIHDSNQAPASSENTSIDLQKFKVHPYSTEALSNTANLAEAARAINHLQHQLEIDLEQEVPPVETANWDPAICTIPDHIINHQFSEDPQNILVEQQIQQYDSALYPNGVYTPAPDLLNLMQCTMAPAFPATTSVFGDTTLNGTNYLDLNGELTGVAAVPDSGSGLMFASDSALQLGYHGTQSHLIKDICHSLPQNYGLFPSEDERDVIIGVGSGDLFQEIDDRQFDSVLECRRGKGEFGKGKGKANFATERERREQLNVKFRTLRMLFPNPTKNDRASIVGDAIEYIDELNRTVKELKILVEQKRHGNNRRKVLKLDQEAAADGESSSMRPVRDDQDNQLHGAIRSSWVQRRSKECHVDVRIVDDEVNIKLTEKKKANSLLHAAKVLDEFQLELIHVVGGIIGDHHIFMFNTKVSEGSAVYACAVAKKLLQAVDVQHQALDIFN
Briefly: EMSA; shifted band not reduced by unlabelled probe; authors conclude no direct binding; LightShift Chemiluminescent EMSA Kit (Thermo); buffer, salt, pH and temperature not stated. As to conditions: protein: recombinant; chain copies: 2; label: biotin; blunt.

The next series has as its target T3, MBP-bHLH142 (Oryza sativa (rice; Nipponbare?), UniProt Q5JNS0 1-379).
T3 sequence: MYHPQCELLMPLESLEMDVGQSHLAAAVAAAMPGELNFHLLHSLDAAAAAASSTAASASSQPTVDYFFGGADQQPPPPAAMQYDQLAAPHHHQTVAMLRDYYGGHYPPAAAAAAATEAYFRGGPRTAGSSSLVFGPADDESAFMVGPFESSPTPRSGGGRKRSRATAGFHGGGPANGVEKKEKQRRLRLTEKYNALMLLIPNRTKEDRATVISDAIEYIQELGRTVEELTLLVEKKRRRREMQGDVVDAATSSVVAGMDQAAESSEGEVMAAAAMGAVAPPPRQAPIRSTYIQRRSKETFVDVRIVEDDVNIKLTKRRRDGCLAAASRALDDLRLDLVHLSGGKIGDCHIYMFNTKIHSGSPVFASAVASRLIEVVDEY
The series is described as above. As to conditions: protein: recombinant; chain copies: 2; label: biotin; blunt.

B1: OsPKS1 promoter probe (dsDNA)
DNA 1: GCAAAAATGCAGGGTAAAACCAAAGAAGGGTGGAAGGAATGAACCTTCTGCTCCCCCC
DNA 2: GGGGGGAGCAGAAGGTTCATTCCTTCCACCCTTCTTTGGTTTTACCCTGCATTTTTGC
With B1, in the series with MBP-OsMS188, the binding result is reported as “binds”.

B2: ABCG15 promoter probe (dsDNA)
DNA 1: AGTCTGCTTGGCGCTCTCTCTCTGAACCTGTCACTCTTTTTTTCTGTGTCT
DNA 2: AGACACAGAAAAAAAGAGTGACAGGTTCAGAGAGAGAGCGCCAAGCAGACT
For B2, in the series with MBP-OsMS188, the binding result is on record as “binds”.

B3: CYP704B2 promoter probe (dsDNA)
DNA 1: AATAGCCTATTCAGATGAAGTAGAATTCAGGTGAAGTAGAAACCAACTACTTTGGGTTC
DNA 2: GAACCCAAAGTAGTTGGTTTCTACTTCACCTGAATTCTACTTCATCTGAATAGGCTATT
With B3, in the series with MBP-OsMS188, the binding result is listed as “binds”.

B4: CYP703A3 promoter probe (dsDNA)
DNA 1: GATATCACATGACTTGTACATAATGCCTAAAATGTGGATATCTGACCAGGTGCTTGGTG
DNA 2: CACCAAGCACCTGGTCAGATATCCACATTTTAGGCATTATGTACAAGTCATGTGATATC
As for B4, the binding result with MBP-OsMS188 is given as “binds”.

B5: OsMS188 promoter probe (dsDNA)
DNA 1: GAGAATGCATTTGGTGGTCGTGTGTTGTTTGTAACAACTGGGGAGC
DNA 2: GCTCCCCAGTTGTTACAAACAACACACGACCACCAAATGCATTCTC
Regarding B5, the binding result with MBP-TDR was “binds”; with MBP-EAT1 it was “no binding”; in the series with MBP-bHLH142 it was “no binding”.

B6: OsPKS2 promoter probe (dsDNA)
DNA 1: TACCTGCTCTCCACCAACCATTCTTTCCATGCATTCGTTGCCTCTCAACTGCACCAGCT
DNA 2: AGCTGGTGCAGTTGAGAGGCAACGAATGCATGGAAAGAATGGTTGGTGGAGAGCAGGTA
As to B6, the binding result with MBP-OsMS188 is “binds”.

B7: DPW promoter probe (dsDNA)
DNA 1: AGGGAACTGAATCTTTTGCATGAACCACTGCATTTCCAAGAAGTGCACGAGCTTTGCA
DNA 2: TGCAAAGCTCGTGCACTTCTTGGAAATGCAGTGGTTCATGCAAAAGATTCAGTTCCCT
B7: the binding result in the series with MBP-OsMS188 is “binds”.
